Where no end group is shown, it is not given here. [ ]: non-standard residue; d: D form. pGlu = O=C1CC[C@@H](C(=O)O)N1
Columns and labels:
MAb 400-1 = assay: MAb inhibition ELISA; free peptide inhibits 400-1 binding to coated hG17(1-9)-“Ala”-BSA
MAb 400-2 = assay: MAb inhibition ELISA; free peptide inhibits 400-2 binding to coated hG17(1-9)-“Ala”-BSA
MAb 400-3 = assay: MAb inhibition ELISA; free peptide inhibits 400-3 binding to coated hG17(1-9)-“Ala”-BSA
MAb 400-4 = assay: MAb inhibition ELISA; free peptide inhibits 400-4 binding to coated hG17(1-9)-“Ala”-BSA
MAb 458-1 [1] = assay: MAb inhibition ELISA; free peptide inhibits 458-1 binding to the coated target conjugate
MAb 458-2 = assay: MAb inhibition ELISA; free peptide inhibits 458-2 binding to the coated target conjugate
MAb 458-3 [2] = assay: MAb inhibition ELISA; free peptide inhibits 458-3 binding to the coated target conjugate
MAb 458-4 = assay: MAb inhibition ELISA; free peptide inhibits 458-4 binding to the coated target conjugate
MAb 458-5 = assay: MAb inhibition ELISA; free peptide inhibits 458-5 binding to the coated target conjugate
MAb 458-1 [3] = assay: MAb inhibition ELISA; free peptide against 458-1 binding to the coated target conjugate
MAb 445-1 = assay: MAb inhibition ELISA; free peptide inhibits 445-1 binding to coated hG34(16-34)-Gly 35-BSA
MAb 445-2 = assay: MAb inhibition ELISA; free peptide inhibits 445-2 binding to coated hG34(16-34)-Gly 35-BSA
MAb 401-2 = assay: MAb inhibition ELISA; free peptide inhibits 401-2 binding to the coated G34 N-terminal peptide-BSA
MAb 458-3 [4] = assay: MAb inhibition ELISA; free peptide against 458-3 binding to the coated target conjugate

Row | Binder | IC50 (MAb 400-1) [nM] | IC50 (MAb 400-2) [nM] | IC50 (MAb 400-3) [nM] | IC50 (MAb 400-4) [nM] | Inhibition at 10 nmol/ml (250 pmoles/well) (MAb 458-1 [1]) [%] | Inhibition at 10 nmol/ml (250 pmoles/well) (MAb 458-2) [%] | Inhibition at 10 nmol/ml (250 pmoles/well) (MAb 458-3 [2]) [%] | Inhibition at 10 nmol/ml (250 pmoles/well) (MAb 458-4) [%] | Inhibition at 10 nmol/ml (250 pmoles/well) (MAb 458-5) [%] | Inhibition at 10 nmol/ml (250 pmoles/well) (MAb 458-1 [3]) [%] | IC50 (MAb 445-1) [nM] | IC50 (MAb 445-2) [nM] | IC50 (MAb 401-2) [nM] | Inhibition at 10 nmol/ml (250 pmoles/well) (MAb 458-3 [4]) [%]
1 | EGPWLEEEEEAYGWMDF (N-terminal pyroglutamic acid (pE); C-terminal Phe-NH2 (amide)) [human gastrin-17 (G17)] | 2030 | 85 | 1080 | 620 | 94.3 | 86 | 92.4 | 88.4 | 91.9 | – | – | – | – | –
2 | [pGlu]GPWLEEEEEAYGWMDFG (ends and bridges not checked) [glycine-extended gastrin-17 (G17-Gly)] | 1790 | 77 | 1390 | 699 | – | – | – | – | – | 2.1 | 700 | 5000 | – | –
3 | CPPPPSSYGWMDFG [hG17(12-17)-Gly18 peptide …] | – | – | – | – | – | – | – | – | – | – | 4000 | 13000 | – | –
4 | [pGlu]LGPQGPPHLVADPSKKEGPWLEEEEEAYGWMDF-NH2 (ends and bridges not checked) [human gastrin-34 (G34)] | – | – | – | – | 93.5 | 84.5 | 90.7 | 86.7 | 91.5 | – | – | – | 700 | –
5 | DYMGWMDF-NH2 [CCK (26-33) unsulfated] | – | – | – | – | 93.8 | 84.8 | 84.8 | 83.4 | 92 | – | – | – | – | –
6 | EGPWLEEEE [hG17(9)] | – | – | – | – | – | – | – | – | – | – | – | – | – | 1.2

Reference: patent publication US20150166656A1
